Laboratory results taken from article PMC9482650, “Quantitative fragmentomics allow affinity mapping of interactomes” (Nature Communications, 2022).
Residue numbers refer to the chain shown, from its start.

target: Inadl_10, Q8NI35; assay: holdup assay; design: key: below the threshold = too weak to quantify, mostly under pKd 3.1 to 4; details: plain residues with an end cap or a label only (N-terminal biotin on a linker: ado-ado)
Sequence (Q8NI35 1673-1763): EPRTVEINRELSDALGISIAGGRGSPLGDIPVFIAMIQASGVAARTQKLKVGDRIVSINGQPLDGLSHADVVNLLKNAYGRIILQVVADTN

Q: Which pKd does the source give for PSDSVGKDVF [EGLN1, Q9GZT9] here?
A: below the threshold

Q: For KAEEKPPSKV [SCN4B, Q8IWT1], which pKd is on record?
A: below the threshold

target: LNX1_1, Q8TBB1; assay: holdup assay; design: key: below the threshold = too weak to quantify, mostly under pKd 3.1 to 4; details: plain residues with an end cap or a label only (N-terminal biotin on a linker: ado-ado)
Sequence (Q8TBB1 261-371): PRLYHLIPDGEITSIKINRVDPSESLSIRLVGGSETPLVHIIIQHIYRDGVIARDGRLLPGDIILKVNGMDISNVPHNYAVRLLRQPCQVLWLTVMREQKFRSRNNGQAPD

Q: With PSDSVGKDVF [EGLN1, Q9GZT9] as the binder, how does the pKd read?
A: below the threshold

Q: For KAEEKPPSKV [SCN4B, Q8IWT1], which pKd is on record?
A: 3.49

target: DLG1_3, Q12959; assay: holdup assay; design: key: below the threshold = too weak to quantify, mostly under pKd 3.1 to 4; details: plain residues with an end cap or a label only (N-terminal biotin on a linker: ado-ado)
Sequence (Q12959 457-571): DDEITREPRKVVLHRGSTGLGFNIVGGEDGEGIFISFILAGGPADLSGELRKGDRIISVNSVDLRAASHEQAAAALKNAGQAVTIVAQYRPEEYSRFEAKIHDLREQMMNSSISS

Q: Which pKd does the source give for PSDSVGKDVF [EGLN1, Q9GZT9] here?
A: below the threshold

Q: KAEEKPPSKV [SCN4B, Q8IWT1] was tested. Which pKd did it give?
A: below the threshold

target: T1, LIN7A, O14910; assay: holdup assay; design: key: below the threshold = too weak to quantify, mostly under pKd 3.1 to 4; details: plain residues with an end cap or a label only (N-terminal biotin on a linker: ado-ado)
T1 sequence (O14910 103-200, limits assumed, looked up): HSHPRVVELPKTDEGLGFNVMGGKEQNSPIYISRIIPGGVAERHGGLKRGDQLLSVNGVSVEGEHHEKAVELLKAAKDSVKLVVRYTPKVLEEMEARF

Q: Which pKd does the source give for PSDSVGKDVF [EGLN1, Q9GZT9] here?
A: below the threshold

Q: With KAEEKPPSKV [SCN4B, Q8IWT1] as the binder, how does the pKd read?
A: below the threshold

target: T2, TX1BP3, O14907; assay: holdup assay; design: key: below the threshold = too weak to quantify, mostly under pKd 3.1 to 4; details: plain residues with an end cap or a label only (N-terminal biotin on a linker: ado-ado)
T2 sequence (O14907 10-122, limits assumed, looked up): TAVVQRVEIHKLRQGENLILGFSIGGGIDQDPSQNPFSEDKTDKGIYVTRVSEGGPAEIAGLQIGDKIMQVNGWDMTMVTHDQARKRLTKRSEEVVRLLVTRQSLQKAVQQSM

Q: Which pKd does the source give for PSDSVGKDVF [EGLN1, Q9GZT9] here?
A: below the threshold

Q: Which pKd does the source give for KAEEKPPSKV [SCN4B, Q8IWT1] here?
A: below the threshold

target: GRIP2_7, Q9C0E4; assay: holdup assay; design: key: below the threshold = too weak to quantify, mostly under pKd 3.1 to 4; details: plain residues with an end cap or a label only (N-terminal biotin on a linker: ado-ado)
Sequence (Q9C0E4 934-1023): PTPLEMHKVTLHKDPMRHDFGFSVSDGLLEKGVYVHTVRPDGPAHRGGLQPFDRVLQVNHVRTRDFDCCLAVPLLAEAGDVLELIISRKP

Q: With PSDSVGKDVF [EGLN1, Q9GZT9] as the binder, how does the pKd read?
A: below the threshold

Q: How did the pKd turn out when KAEEKPPSKV [SCN4B, Q8IWT1] was run?
A: below the threshold

target: T3, SNTG2, Q9NY99; assay: holdup assay; design: key: below the threshold = too weak to quantify, mostly under pKd 3.1 to 4; details: plain residues with an end cap or a label only (N-terminal biotin on a linker: ado-ado)
T3 sequence (Q9NY99 68-166, limits assumed, looked up): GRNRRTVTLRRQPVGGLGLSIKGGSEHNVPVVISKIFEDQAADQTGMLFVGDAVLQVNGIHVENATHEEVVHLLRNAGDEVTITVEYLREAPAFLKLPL

Q: With PSDSVGKDVF [EGLN1, Q9GZT9] as the binder, how does the pKd read?
A: below the threshold

Q: Which pKd does the source give for KAEEKPPSKV [SCN4B, Q8IWT1] here?
A: below the threshold

target: MAGI2_6, Q86UL8; assay: holdup assay; design: key: below the threshold = too weak to quantify, mostly under pKd 3.1 to 4; details: plain residues with an end cap or a label only (N-terminal biotin on a linker: ado-ado)
Sequence (Q86UL8 1141-1229): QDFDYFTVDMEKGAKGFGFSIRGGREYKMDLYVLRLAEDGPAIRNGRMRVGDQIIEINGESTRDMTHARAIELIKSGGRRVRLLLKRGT

Q: PSDSVGKDVF [EGLN1, Q9GZT9] was tested. Which pKd did it give?
A: below the threshold

Q: How did the pKd turn out when KAEEKPPSKV [SCN4B, Q8IWT1] was run?
A: below the threshold

target: MAGI3_2, Q5TCQ9; assay: holdup assay; design: key: below the threshold = too weak to quantify, mostly under pKd 3.1 to 4; details: plain residues with an end cap or a label only (N-terminal biotin on a linker: ado-ado)
Sequence (Q5TCQ9 398-503): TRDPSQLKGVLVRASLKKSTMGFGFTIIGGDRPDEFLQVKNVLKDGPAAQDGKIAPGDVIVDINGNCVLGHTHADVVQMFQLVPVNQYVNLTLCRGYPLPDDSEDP

Q: Which pKd does the source give for PSDSVGKDVF [EGLN1, Q9GZT9] here?
A: below the threshold

Q: KAEEKPPSKV [SCN4B, Q8IWT1] was tested. Which pKd did it give?
A: below the threshold

target: GRASP, Q7Z6J2; assay: holdup assay; design: key: below the threshold = too weak to quantify, mostly under pKd 3.1 to 4; details: plain residues with an end cap or a label only (N-terminal biotin on a linker: ado-ado)
Sequence (Q7Z6J2 96-193): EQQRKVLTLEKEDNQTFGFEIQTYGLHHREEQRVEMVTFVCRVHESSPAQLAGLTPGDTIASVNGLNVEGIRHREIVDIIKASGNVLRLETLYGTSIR

Q: Which pKd does the source give for PSDSVGKDVF [EGLN1, Q9GZT9] here?
A: 3.7

Q: How did the pKd turn out when KAEEKPPSKV [SCN4B, Q8IWT1] was run?
A: below the threshold

target: T4, RAPGEF6, Q8TEU7; assay: holdup assay; design: key: below the threshold = too weak to quantify, mostly under pKd 3.1 to 4; details: plain residues with an end cap or a label only (N-terminal biotin on a linker: ado-ado)
T4 sequence (Q8TEU7 525-625, limits assumed, looked up): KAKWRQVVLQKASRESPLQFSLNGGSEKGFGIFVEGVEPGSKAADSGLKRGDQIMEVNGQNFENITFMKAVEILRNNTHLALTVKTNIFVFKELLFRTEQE

Q: Which pKd does the source give for PSDSVGKDVF [EGLN1, Q9GZT9] here?
A: below the threshold

Q: KAEEKPPSKV [SCN4B, Q8IWT1] was tested. Which pKd did it give?
A: below the threshold

target: T5, APBA2_2, Q99767; assay: holdup assay; design: key: below the threshold = too weak to quantify, mostly under pKd 3.1 to 4; details: plain residues with an end cap or a label only (N-terminal biotin on a linker: ado-ado)
T5 sequence (Q99767 654-744, limits assumed, looked up): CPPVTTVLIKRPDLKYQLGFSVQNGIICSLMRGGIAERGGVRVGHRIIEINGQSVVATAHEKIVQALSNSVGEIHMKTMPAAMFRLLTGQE

Q: With PSDSVGKDVF [EGLN1, Q9GZT9] as the binder, how does the pKd read?
A: below the threshold

Q: With KAEEKPPSKV [SCN4B, Q8IWT1] as the binder, how does the pKd read?
A: below the threshold

target: T6, APBA2_1, Q99767; assay: holdup assay; design: key: below the threshold = too weak to quantify, mostly under pKd 3.1 to 4; details: plain residues with an end cap or a label only (N-terminal biotin on a linker: ado-ado)
T6 sequence (Q99767 563-664, limits assumed, looked up): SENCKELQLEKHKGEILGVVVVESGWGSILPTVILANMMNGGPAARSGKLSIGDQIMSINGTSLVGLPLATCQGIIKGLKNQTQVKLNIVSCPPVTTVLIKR

Q: For PSDSVGKDVF [EGLN1, Q9GZT9], which pKd is on record?
A: below the threshold

Q: With KAEEKPPSKV [SCN4B, Q8IWT1] as the binder, how does the pKd read?
A: below the threshold

target: T7, DLG3_2, Q92796; assay: holdup assay; design: key: below the threshold = too weak to quantify, mostly under pKd 3.1 to 4; details: plain residues with an end cap or a label only (N-terminal biotin on a linker: ado-ado)
T7 sequence (Q92796 221-321, limits assumed, looked up): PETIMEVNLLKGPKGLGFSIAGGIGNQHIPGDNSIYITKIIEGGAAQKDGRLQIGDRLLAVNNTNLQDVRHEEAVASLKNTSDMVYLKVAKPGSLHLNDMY

Q: For PSDSVGKDVF [EGLN1, Q9GZT9], which pKd is on record?
A: 4.07

Q: With KAEEKPPSKV [SCN4B, Q8IWT1] as the binder, how does the pKd read?
A: below the threshold

target: T8, DLG3_1, Q92796; assay: holdup assay; design: key: below the threshold = too weak to quantify, mostly under pKd 3.1 to 4; details: plain residues with an end cap or a label only (N-terminal biotin on a linker: ado-ado)
T8 sequence (Q92796 125-227, limits assumed, looked up): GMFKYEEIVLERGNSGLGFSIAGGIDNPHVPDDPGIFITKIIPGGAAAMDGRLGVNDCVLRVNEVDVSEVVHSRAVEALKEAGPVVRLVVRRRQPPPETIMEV

Q: For PSDSVGKDVF [EGLN1, Q9GZT9], which pKd is on record?
A: below the threshold

Q: With KAEEKPPSKV [SCN4B, Q8IWT1] as the binder, how does the pKd read?
A: below the threshold

target: ARHGEF12, Q9NZN5-2; assay: holdup assay; design: key: below the threshold = too weak to quantify, mostly under pKd 3.1 to 4; details: plain residues with an end cap or a label only (N-terminal biotin on a linker: ado-ado)
Sequence (Q9NZN5 other isoform, or with tags, fused parts or gaps): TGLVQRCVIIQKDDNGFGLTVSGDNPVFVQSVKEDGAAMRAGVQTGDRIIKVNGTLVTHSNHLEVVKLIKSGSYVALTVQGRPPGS

Q: Which pKd does the source give for PSDSVGKDVF [EGLN1, Q9GZT9] here?
A: below the threshold

Q: With KAEEKPPSKV [SCN4B, Q8IWT1] as the binder, how does the pKd read?
A: below the threshold

target: LNX1_2, Q8TBB1; assay: holdup assay; design: key: below the threshold = too weak to quantify, mostly under pKd 3.1 to 4; details: plain residues with an end cap or a label only (N-terminal biotin on a linker: ado-ado)
Sequence (Q8TBB1 371-470): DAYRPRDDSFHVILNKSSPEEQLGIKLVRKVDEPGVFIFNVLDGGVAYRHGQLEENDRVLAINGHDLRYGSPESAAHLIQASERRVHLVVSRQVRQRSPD

Q: Which pKd does the source give for PSDSVGKDVF [EGLN1, Q9GZT9] here?
A: below the threshold

Q: How did the pKd turn out when KAEEKPPSKV [SCN4B, Q8IWT1] was run?
A: below the threshold

target: FRMPD3, Q5JV73; assay: holdup assay; design: key: below the threshold = too weak to quantify, mostly under pKd 3.1 to 4; details: plain residues with an end cap or a label only (N-terminal biotin on a linker: ado-ado)
Sequence (Q5JV73 12-100): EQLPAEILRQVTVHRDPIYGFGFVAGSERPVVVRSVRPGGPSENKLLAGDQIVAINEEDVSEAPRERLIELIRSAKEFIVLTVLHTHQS

Q: With PSDSVGKDVF [EGLN1, Q9GZT9] as the binder, how does the pKd read?
A: below the threshold

Q: KAEEKPPSKV [SCN4B, Q8IWT1] was tested. Which pKd did it give?
A: below the threshold

target: T9, APBA1_1, Q02410; assay: holdup assay; design: key: below the threshold = too weak to quantify, mostly under pKd 3.1 to 4; details: plain residues with an end cap or a label only (N-terminal biotin on a linker: ado-ado)
T9 sequence (Q02410 651-752, limits assumed, looked up): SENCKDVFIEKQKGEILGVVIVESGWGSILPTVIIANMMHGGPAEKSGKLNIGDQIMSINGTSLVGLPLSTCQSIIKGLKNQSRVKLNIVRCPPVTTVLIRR

Q: How did the pKd turn out when PSDSVGKDVF [EGLN1, Q9GZT9] was run?
A: below the threshold

Q: KAEEKPPSKV [SCN4B, Q8IWT1] was tested. Which pKd did it give?
A: below the threshold

target: T10, LIN7C, Q9NUP9; assay: holdup assay; design: key: below the threshold = too weak to quantify, mostly under pKd 3.1 to 4; details: plain residues with an end cap or a label only (N-terminal biotin on a linker: ado-ado)
T10 sequence (Q9NUP9 88-185, limits assumed, looked up): T1 sequence (O14910 103-200, limits assumed, looked up) with D13E, V20I, V40I, E42D, K77Q, D78G, S79K, A96S

Q: How did the pKd turn out when PSDSVGKDVF [EGLN1, Q9GZT9] was run?
A: below the threshold

Q: Which pKd does the source give for KAEEKPPSKV [SCN4B, Q8IWT1] here?
A: below the threshold

target: HTRA2, O43464; assay: holdup assay; design: key: below the threshold = too weak to quantify, mostly under pKd 3.1 to 4; details: plain residues with an end cap or a label only (N-terminal biotin on a linker: ado-ado)
Sequence (O43464 355-458): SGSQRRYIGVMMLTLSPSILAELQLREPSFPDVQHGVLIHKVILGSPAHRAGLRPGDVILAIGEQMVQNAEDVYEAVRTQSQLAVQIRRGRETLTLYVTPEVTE

Q: Which pKd does the source give for PSDSVGKDVF [EGLN1, Q9GZT9] here?
A: below the threshold

Q: How did the pKd turn out when KAEEKPPSKV [SCN4B, Q8IWT1] was run?
A: below the threshold

target: T11, PCLO, Q9Y6V0; assay: holdup assay; design: key: below the threshold = too weak to quantify, mostly under pKd 3.1 to 4; details: plain residues with an end cap or a label only (N-terminal biotin on a linker: ado-ado)
T11 sequence (Q9Y6V0 4491-4600, limits assumed, looked up): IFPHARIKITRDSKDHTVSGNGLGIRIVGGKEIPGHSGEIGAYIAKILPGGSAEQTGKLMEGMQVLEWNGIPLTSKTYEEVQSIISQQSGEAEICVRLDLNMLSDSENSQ

Q: For PSDSVGKDVF [EGLN1, Q9GZT9], which pKd is on record?
A: below the threshold

Q: How did the pKd turn out when KAEEKPPSKV [SCN4B, Q8IWT1] was run?
A: below the threshold

target: Inadl_9, Q8NI35; assay: holdup assay; design: key: below the threshold = too weak to quantify, mostly under pKd 3.1 to 4; details: plain residues with an end cap or a label only (N-terminal biotin on a linker: ado-ado)
Sequence (Q8NI35 1530-1615): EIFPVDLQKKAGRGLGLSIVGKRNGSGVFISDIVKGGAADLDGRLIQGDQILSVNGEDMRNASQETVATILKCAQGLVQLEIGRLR

Q: Which pKd does the source give for PSDSVGKDVF [EGLN1, Q9GZT9] here?
A: below the threshold

Q: KAEEKPPSKV [SCN4B, Q8IWT1] was tested. Which pKd did it give?
A: 3.8

target: T12, PARD3B_1, Q8TEW8; assay: holdup assay; design: key: below the threshold = too weak to quantify, mostly under pKd 3.1 to 4; details: plain residues with an end cap or a label only (N-terminal biotin on a linker: ado-ado)
T12 sequence (Q8TEW8 196-299, limits assumed, looked up): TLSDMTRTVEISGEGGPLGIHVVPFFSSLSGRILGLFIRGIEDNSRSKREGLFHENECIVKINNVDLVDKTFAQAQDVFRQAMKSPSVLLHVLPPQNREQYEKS

Q: Which pKd does the source give for PSDSVGKDVF [EGLN1, Q9GZT9] here?
A: 3.5

Q: With KAEEKPPSKV [SCN4B, Q8IWT1] as the binder, how does the pKd read?
A: below the threshold

target: LIMK2, P53671; assay: holdup assay; design: key: below the threshold = too weak to quantify, mostly under pKd 3.1 to 4; details: plain residues with an end cap or a label only (N-terminal biotin on a linker: ado-ado)
Sequence (P53671 143-248): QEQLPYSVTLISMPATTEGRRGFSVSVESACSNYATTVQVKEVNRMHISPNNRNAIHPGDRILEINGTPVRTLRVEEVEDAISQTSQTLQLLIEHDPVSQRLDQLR

Q: How did the pKd turn out when PSDSVGKDVF [EGLN1, Q9GZT9] was run?
A: below the threshold

Q: With KAEEKPPSKV [SCN4B, Q8IWT1] as the binder, how does the pKd read?
A: below the threshold
